In US20030013634A1, “Synthesis of small particles” (priority 2000, published 2003):

Legend:
[1] = Biochemical integrity by size exclusion chromatography (monomer content); assay type: physicochemical; details: for biological activity as indicated by the in vitro test for monomer content: after processing with the anti-solvent
Experimental: A protein-Pak 125 column (Waters, USA) was used for insulin. The mobile phase consisted of 50 mM sodium phosphate buffer at pH 3 with 300 mM sodium chloride. The powder samples were dissolved to prepare 1 mg/mL solution in deionised water by gentle shaking for 10 minutes to have complete dissolution. The supernatant was filtered through […] membrane filter and then injected into the HPLC column. […] The software Millennium 3.5 was used in the quantification of the monomer content.

[2] = Aerosol characterisation by impaction (Marple-Miller / Cascade Impactor); assay type: physicochemical
Experimental: In order to determine the aerosol performance of the protein particles, in vitro testing of the particles was assessed using a 5 stage Marple-Miller Impactor (Model 160, MSP Corporation, USA) with cut-off diameters of […]. The Marple-Miller impactor consisted of a stainless steel inlet throat, five impaction stages and an integral filter stage. The stages were previously coated with propylene glycol/methanol (50:50) to prevent particle bounce, thus minimising the probability of carry over of coarse particles onto lower stages.
A mass of 10-20 mg of insulin was weighed into a gelatin capsule (size 3, Park Davis, Australia) and was immediately dispersed by a powder inhaler device, Dinkihaler (Aventis, Frankfurt, Germany) into the Marple Miller Impactor at 60 L/min using a vacuum source (ERWEKA GMBH, Germany).
The fraction of the protein recovered in each stage was calculated by measuring the absorbance of the protein solution against the absorbance of a standard 1% solution of insulin.

[3] = Median particle size by laser diffraction; assay type: physicochemical; details: for median particle size: laser diffraction, agglomerated insulin powder, Example 5
Excerpt: These fine insulin particles may aggregate to form larger particles due to intermolecular interaction between the molecules. […] Insulin precipitated as nano-sized particles, was also agglomerated to micron-sized particles.

[4] = Particle size and morphology by SEM; assay type: physicochemical
Excerpt: These fine insulin particles may aggregate to form larger particles due to intermolecular interaction between the molecules.

[5] = values reported in the literature; cited from earlier work
[6] = Insulin deamidation testing by reverse phase HPLC; assay type: physicochemical; details: 2 mg/mL, after particle formation
Experimental: In order to determine the percentage of insulin that was deamidated by the process, a test of the insulin was performed using high performance liquid chromatography (HPLC). A reverse phase column (Symmetry® C18, 5 μm packing, 4.6 mm×150 mm) was used to separate the deamidated from the non-deamidated insulin. The gradient method was used with eluents 0.1% trifluoroacetic acid/acetonitrile 26% to 33% and the flow rate of 1 mL/min. The absorbance was monitored at 280 nm.
The percentage of deamido insulin was determined by comparing the peak area of the degradation product to the area of standard insulin containing the same concentration of insulin (2 mg/mL).

| Substance | biological activity as indicated by the in vitro test for monomer content [1] | FPM (%) fine particle mass, mass fraction of particles below 5 μm ([2]; 2-stage process) [%] | D(0.5, V) median particle size based on volume ([3]; 2-stage process) | D(0.5, V) median particle size based on volume ([3]; single stage production unit) | increase in the amount of material less than 5 μm aerodynamic diameter ([2]; 2-stage versus single stage process) [%] | fraction of particles with a size >10 μm ([2]; aerodynamic particle size distribution, FIG. 4) | FPM (%) fine particle mass, mass fraction of particles below 5 μm ([2]; single stage production unit) [%] | monomer content ([1]; 1 mg/mL in deionised water, after particle formation) [%] | fine particle fraction (% <5 μm) ([2]; Marple Miller Impactor, Dinkihaler, 60 L/min) | size of nano-sized particles ([4]; modified dual vessel apparatus (FIG. 10b)) | size of nano-sized particles ([4]; single-stage apparatus (FIG. 9b)) | maximum FPM obtained by other methods [5] [%] | percentage of deamido insulin [6] [%] | median particle size [3] [μm] | median particle size ([3]; listed as Insulin) |
| --- | --- | --- | --- | --- | --- | --- | --- | --- | --- | --- | --- | --- | --- | --- | --- |
| CO2-ethanol: Insulin particles precipitated using carbon dioxide modified with 20 mol % ethanol as anti-solvent (comparison) | significant deactivation | 21.9 | 8.2 +/− 0.6 | 11.8 +/− 1.6 | – | – | – | – | – | – | – | – | – | – | – |
| Ethane-ethanol | retention of biological activity | 43.5 | 4.8 +/− 0.4 | 12.8 +/− 1.0 | 100 | around 45% | 20.0 | – | – | – | – | – | – | – | – |
| insulin: Low endotoxin bovine insulin (Sigma), precipitated as fine particles from aqueous solution by the ASES process | – | 45 | – | – | – | – | 20 | 99.5 | at least 42% | 50-500 nm | 50-500 nm | ≤ 10 | 3.0 | 5 | about 5 μm |
